Test results: article PMC8876890, “Engineering Chimeras by Fusing Plant Receptor-like Kinase EMS1 and BRI1 Reveals the Two Receptors’ Structural Specificity and Molecular Mechanisms” (International Journal of Molecular Sciences, 2022)

B1: GST-EMS1-CD (domain or fragment, Arabidopsis thaliana, UniProt Q9LYN8 849-1192, looked up)
chain: RRWAMTKRVKQRDDPERMEESRLKGFVDQNLYFLSGSRSREPLSINIAMFEQPLLKVRLGDIVEATDHFSKKNIIGDGGFGTVYKACLPGEKTVAVKKLSEAKTQGNREFMAEMETLGKVKHPNLVSLLGYCSFSEEKLLVYEYMVNGSLDHWLRNQTGMLEVLDWSKRLKIAVGAARGLAFLHHGFIPHIIHRDIKASNILLDGDFEPKVADFGLARLISACESHVSTVIAGTFGYIPPEYGQSARATTKGDVYSFGVILLELVTGKEPTGPDFKESEGGNLVGWAIQKINQGKAVDVIDPLLVSVALKNSQLRLLQIAMLCLAETPAKRPNMLDVLKALKEI
notes: EXCESS MICROSPOROCYTES1 (EMS1) LRR receptor-like kinase, Arabidopsis thaliana, cytoplasmic domain, residues 849-1192, cloned into pGEX-4T-3; also called cytoplasmic domain of EMS1; EMS1 kinase domain; source: E. coli BL21 (DE3), purified (Glutathione Sepharose 4B)
B2: GST-BRI1-CD (domain or fragment, Arabidopsis thaliana, UniProt O22476 814-1196, looked up)
chain: GREMRKRRRKKEAELEMYAEGHGNSGDRTANNTNWKLTGVKEALSINLAAFEKPLRKLTFADLLQATNGFHNDSLIGSGGFGDVYKAILKDGSAVAIKKLIHVSGQGDREFMAEMETIGKIKHRNLVPLLGYCKVGDERLLVYEFMKYGSLEDVLHDPKKAGVKLNWSTRRKIAIGSARGLAFLHHNCSPHIIHRDMKSSNVLLDENLEARVSDFGMARLMSAMDTHLSVSTLAGTPGYVPPEYYQSFRCSTKGDVYSYGVVLLELLTGKRPTDSPDFGDNNLVGWVKQHAKLRISDVFDPELMKEDPALEIELLQHLKVAVACLDDRAWRRPTMVQVMAMFKEIQAGSGIDSQSTIRSIEDGGFSTIEMVDMSIKEVPEGKL
notes: BRASSINOSTEROID … 1 (BRI1) LRR receptor-like kinase, Arabidopsis thaliana, cytoplasmic domain, residues 814-1196, cloned into pGEX-4T-3; also called cytoplasmic domain of BRI1; source: E. coli BL21 (DE3), purified (Glutathione Sepharose 4B)

Experiments:
BSK3-His = target: T1, BSK3-His (UniProt Q8W4L3 1-489); assay: pull-down; GST fusion proteins on Glutathione Sepharose 4B beads, incubated with BSK1-His or BSK3-His 4-6 h at 4 °C, washed 6-8 times with His lysis buffer; blot with His and GST antibodies; details: both partners purified
T1 construct: BSK3, receptor-like cytoplasmic kinase of subfamily RLCK-XII, full-length cDNA in pET-28a; The species is most likely Arabidopsis thaliana, the plant of the whole study; source: E. coli BL21 (DE3), purified (Ni-NTA Agarose)
T1 sequence (Q8W4L3 whole entry, the tested form may be a part): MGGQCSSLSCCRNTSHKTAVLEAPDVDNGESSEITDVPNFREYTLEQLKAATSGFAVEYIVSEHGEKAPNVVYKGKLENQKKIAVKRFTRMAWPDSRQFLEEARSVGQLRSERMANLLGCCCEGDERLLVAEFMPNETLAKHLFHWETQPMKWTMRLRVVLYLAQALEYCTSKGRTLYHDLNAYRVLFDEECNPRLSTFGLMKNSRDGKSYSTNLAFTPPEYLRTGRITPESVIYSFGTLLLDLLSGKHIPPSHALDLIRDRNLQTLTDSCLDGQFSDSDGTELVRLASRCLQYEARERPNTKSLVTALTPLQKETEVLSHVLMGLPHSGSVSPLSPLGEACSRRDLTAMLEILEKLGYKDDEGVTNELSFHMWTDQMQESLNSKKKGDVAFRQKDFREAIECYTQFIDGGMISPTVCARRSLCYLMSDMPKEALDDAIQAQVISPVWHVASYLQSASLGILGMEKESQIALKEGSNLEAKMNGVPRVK

BSK1-His = target: T2, BSK1-His (UniProt Q944A7 1-512); assay: as above; details: both partners purified
T2 construct: BSK1, receptor-like cytoplasmic kinase of subfamily RLCK-XII, full-length cDNA in pET-28a; The species is most likely Arabidopsis thaliana, the plant of the whole study; source: E. coli BL21 (DE3), purified (Ni-NTA Agarose)
T2 sequence (Q944A7 whole entry): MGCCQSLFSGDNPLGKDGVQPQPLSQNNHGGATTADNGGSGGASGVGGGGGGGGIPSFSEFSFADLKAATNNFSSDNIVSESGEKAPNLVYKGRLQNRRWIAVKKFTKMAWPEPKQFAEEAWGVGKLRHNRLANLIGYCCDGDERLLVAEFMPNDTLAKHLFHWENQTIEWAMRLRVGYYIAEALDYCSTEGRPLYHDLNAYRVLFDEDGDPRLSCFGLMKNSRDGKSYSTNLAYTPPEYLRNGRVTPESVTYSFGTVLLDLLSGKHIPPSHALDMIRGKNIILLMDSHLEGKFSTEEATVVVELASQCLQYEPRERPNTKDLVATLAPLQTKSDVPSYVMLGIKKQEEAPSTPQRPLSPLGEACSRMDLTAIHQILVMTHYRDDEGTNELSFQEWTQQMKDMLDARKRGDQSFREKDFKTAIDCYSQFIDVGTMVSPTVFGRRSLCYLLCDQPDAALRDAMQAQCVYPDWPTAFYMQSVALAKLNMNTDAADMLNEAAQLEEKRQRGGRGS

Binder	binding result (BSK3-His)	binding result (BSK1-His)
B1	binds	binds
B2	binds	binds
